Source: patent US20240343814A1
Where a chain is given by its changes, count along the chain named.

B1: VRDN-02500 (antibody, human IgG1, kappa, V domains shown)
VH: EVQLVQSGGGLVKPGGSLRLSCAASGFTFSSFAMHWVRQAPGKGLEWISVIDTRGATYYADSVKGRFTISRDNAKNSLYLQMNSLRAEDTAVYYCARLGNFYYGMDVWGQGTTVTVSS
VL: EIVLTQSPGTLSVSPGERATLSCRASQSIGSSLHWYQQKPGQAPRLLIKYASQSLSGIPDRFSGSGSGTDFTLTISRLEPEDFAVYYCHQSSRLPHTFGQGTKVEIKR
B2: VRDN-02526 (antibody, V domains shown)
VH: B1 VH with D106H
VL: EIVLTQSPGTLSVSPGERATLSCRASQSIGSSLHWYQQKPGQAPRLLIKYASQSLSGIPDRFSGSGSGTDFTLTISRLEPEDFAVYYCHQSSRLPHTFGQGTKVEIK
B3: VRDN-02505 (antibody, V domains shown)
VH: B1 VH with S30H
VL: B2 VL
B4: VRDN-02552 (antibody, V domains shown)
VH: B1 VH
VL: B2 VL with T97H
B5: VRDN-02556 (antibody, V domains shown)
VH: B1 VH with G104H
VL: B2 VL with Y50H
B6: VRDN-02557 (antibody, V domains shown)
VH: B1 VH with M105H
VL: B2 VL with Y50H
B7: VRDN-02559 (antibody, V domains shown)
VH: B1 VH with A33H, A96H
VL: B2 VL
B8: VRDN-02560 (antibody, V domains shown)
VH: B1 VH with A33H, G104H
VL: B2 VL
B9: VRDN-02565 (antibody, V domains shown)
VH: B1 VH with A96H, G104H
VL: B2 VL
B10: VRDN-02506 (antibody, V domains shown)
VH: B1 VH with S31H
VL: B2 VL
B11: VRDN-02566 (antibody, V domains shown)
VH: B1 VH with A96H, M105H
VL: B2 VL
B12: VRDN-02567 (antibody, V domains shown)
VH: B1 VH with G104H, M105H
VL: B2 VL
B13: VRDN-02507 (antibody, V domains shown)
VH: B1 VH with F32H
VL: B2 VL
B14: VRDN-02508 (antibody, V domains shown)
VH: B1 VH with A33H
VL: B2 VL
B15: VRDN-02509 (antibody, V domains shown)
VH: B1 VH with M34H
VL: B2 VL
B16: VRDN-02510 (antibody, V domains shown)
VH: B1 VH with D52H
VL: B2 VL
B17: VRDN-02511 (antibody, V domains shown)
VH: B1 VH with T53H
VL: B2 VL
B18: VRDN-02512 (antibody, V domains shown)
VH: B1 VH with R54H
VL: B2 VL
B19: VRDN-02513 (antibody, V domains shown)
VH: B1 VH with G55H
VL: B2 VL
B20: VRDN-02514 (antibody, V domains shown)
VH: B1 VH with A56H
VL: B2 VL
B21: VRDN-02515 (antibody, V domains shown)
VH: B1 VH with T57H
VL: B2 VL

What follows are binders tested against Recombinant human his-tagged IGF 1R extracellular domain protein (human) (UniProt P08069) (assay: SPR, captured IgG, IGF-1R ECD-his analyte, dissociation pH 6).

| Binder | Kd [nM] | kon [M⁻¹ s⁻¹] | koff [s⁻¹] |
| --- | --- | --- | --- |
| B1 | < 0.0161 | 47500 | – |
| B2 | < 0.0273 | 36600 | – |
| B3 | 0.0422 | 23700 | 1e-06 |
| B4 | 0.0239 | 41900 | 1e-06 |
| B5 | 8.47 | 1.72e+06 | 0.0146 |
| B6 | 0.615 | 3.88e+06 | 0.00239 |
| B7 | 1.74 | 327000 | 0.000567 |
| B8 | 0.996 | 543000 | 0.000541 |
| B9 | 5.77 | 3.43e+06 | 0.0198 |
| B10 | 0.0267 | 37400 | 1e-06 |
| B11 | 3 | 2.95e+06 | 0.00885 |
| B12 | 5.41 | 105000 | 0.000569 |
| B13 | 0.0469 | 21300 | 1e-06 |
| B14 | 3.9 | 53100 | 0.000207 |
| B15 | 0.0285 | 35100 | 1e-06 |
| B16 | 3.84 | 30200 | 0.000116 |
| B17 | 4.28 | 157000 | 0.000672 |
| B18 | 1.2 | 32900 | 3.96e-05 |
| B19 | 0.0322 | 31100 | 1e-06 |
| B20 | 0.0283 | 35300 | 1e-06 |
| B21 | 0.692 | 100000 | 6.92e-05 |

The binders below were run against Recombinant human his-tagged IGF 1R extracellular domain protein (human) (UniProt P08069) (assay: SPR, captured IgG, IGF-1R ECD-his analyte, dissociation pH 7.4).

| Binder | Kd [nM] | koff [s⁻¹] | kon [M⁻¹ s⁻¹] |
| --- | --- | --- | --- |
| B1 | 0.626 | 3.89e-05 | 62100 |
| B2 | 0.00543 | 1e-06 | 184000 |
| B3 | 2.6 | 0.000375 | 144000 |
| B4 | 0.0311 | 1e-06 | 32200 |
| B5 | 10.4 | 0.0127 | 1.22e+06 |
| B6 | 8.16 | 0.00119 | 146000 |
| B7 | 0.593 | 0.000503 | 849000 |
| B8 | 0.933 | 0.0336 | 3.61e+07 |
| B9 | 9.12 | 0.0243 | 2.66e+06 |
| B10 | 0.0143 | 1e-06 | 69900 |
| B11 | 17.4 | 0.0197 | 1.14e+06 |
| B12 | 2.77 | 0.000473 | 171000 |
| B13 | 0.1 | 1.99e-05 | 199000 |
| B14 | 0.00515 | 1e-06 | 194000 |
| B15 | 0.285 | 4.81e-05 | 169000 |
| B16 | 0.214 | 5.3e-05 | 248000 |
| B17 | 41.6 | 0.0319 | 766000 |
| B18 | 6.08 | 0.000271 | 44600 |
| B19 | 1.06 | 5.09e-05 | 48200 |
| B20 | < 0.00926 | – | 108000 |
| B21 | 0.571 | 5.82e-05 | 102000 |

The binders below were run against Recombinant human his-tagged IGF 1R extracellular domain protein (human) (UniProt P08069) (assay: SPR, captured IgG, IGF-1R ECD-his analyte, dissociation pH 6; dissociation at pH 6).

| Binder | koff [s⁻¹] |
| --- | --- |
| B1 | < 1e-06 |
| B2 | < 1e-06 |

The binders below were run against Recombinant human his-tagged IGF 1R extracellular domain protein (human) (UniProt P08069) (assay: SPR, captured IgG, IGF-1R ECD-his analyte, dissociation pH 7.4; dissociation at pH 7.4).

| Binder | koff [s⁻¹] |
| --- | --- |
| B20 | < 1e-06 |
